Assay results as given in patent US20090048161A1.
Where no end group is shown, it is not given here. [ ]: non-standard residue; d: D form.

Biological target: IL-1R on freshly isolated rat thymocytes (rat) (UniProt Q02955)
Assay: radioligand binding on freshly isolated rat thymocytes: displacement of 6 nM I^125-API-101.10 by increasing non-radioactive API-101.10 (printed as 'affinity')

Kd: 1000 nM
Binder: [dR][dY][dT][dV][dE][dL][dA] (also: 125I-labelled form used as tracer, site not given here) [API-101.10]
